According to PMC4560413, “Ethyl Pyruvate Emerges as a Safe and Fast Acting Agent against Trypanosoma brucei by Targeting Pyruvate Kinase Activity” (PLoS ONE, 2015):

Test system: C=C(OP(=O)(O)O)C(=O)O
Assay: purified protein
Details: Mg2+

Chain of pyruvate kinase (PK-1 from rabbit muscle) (Oryctolagus cuniculus) (chain, as listed by the source): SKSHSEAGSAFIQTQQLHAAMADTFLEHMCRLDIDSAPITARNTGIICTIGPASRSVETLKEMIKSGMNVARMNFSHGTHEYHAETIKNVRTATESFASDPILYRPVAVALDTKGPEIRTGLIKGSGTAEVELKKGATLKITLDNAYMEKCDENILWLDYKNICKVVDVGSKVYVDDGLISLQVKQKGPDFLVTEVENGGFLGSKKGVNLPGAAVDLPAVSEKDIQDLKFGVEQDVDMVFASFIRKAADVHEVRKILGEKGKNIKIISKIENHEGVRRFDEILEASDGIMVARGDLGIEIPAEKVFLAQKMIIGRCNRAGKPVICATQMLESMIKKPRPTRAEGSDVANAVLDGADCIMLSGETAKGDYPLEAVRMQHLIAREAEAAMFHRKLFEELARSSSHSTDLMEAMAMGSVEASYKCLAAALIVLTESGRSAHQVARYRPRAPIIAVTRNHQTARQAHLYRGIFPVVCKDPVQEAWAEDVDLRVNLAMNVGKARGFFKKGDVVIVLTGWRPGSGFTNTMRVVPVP

“pyruvate kinase (PK-1 from rabbit muscle) (Oryctolagus cuniculus)” was tested, and the Km was 220 ± 20 µM.
